Results from the Human Domainome abundance scans (Beltran et al. 2025).
± gives the uncertainty stated by the source.

B1: Segment polarity protein dishevelled homolog DVL-3, residues 2 to 81; numbered along this chain, Q92997 (parent)
chain: GETKIIYHLDGQETPYLVKLPLPAERVTLADFKGVLQRPSYKFFFKSMDDDFGVVKEEISDDNAKLPCFNGRVVSWLVSA

Variants of: B1
Assay: abundance fitness (aPCA) (normalised: wild type 0, dead -1); higher = more abundant; growth selection in yeast, the domain comes from the species named
Details: Homo sapiens
In the case of GETKIIYHLDGSETPYLVKLPLPAERVTLADFKGVLQRPSYKFFFKSMDDDFGVVKEEISDDNAKLPCFNGRVVSWLVSA [Q12S], the abundance fitness is reported as 0.263 ± 0.052. Variant GETKIIYHLDGQETPYLVKLPLGAERVTLADFKGVLQRPSYKFFFKSMDDDFGVVKEEISDDNAKLPCFNGRVVSWLVSA [P23G] has an abundance fitness of -0.73 ± 0.082. In the case of GETKIIYHLDGQETPYLVKLPLPAERVTLADFKGVLQRPSYKFFFKSMDDDFGVVKEEISDDNAKLPCFNGGVVSWLVSA [R72G], the abundance fitness is reported as -0.416 ± 0.079. GETKIIYHLDGQETPYLVKLPLPAERVTLADFKGVLQRPSYKFFFKSIDDDFGVVKEEISDDNAKLPCFNGRVVSWLVSA [M48I] gave an abundance fitness of -0.13 ± 0.12. GETKIIYHLDGQETPYLVKLPLPAERVTLADFKVVLQRPSYKFFFKSMDDDFGVVKEEISDDNAKLPCFNGRVVSWLVSA [G34V] showed an abundance fitness of -0.371 ± 0.066. GETKIIYHLDGQETPYLVKLPLPAERVTLADFKGVLQRPSYKFFMKSMDDDFGVVKEEISDDNAKLPCFNGRVVSWLVSA [F45M] showed an abundance fitness of -0.868 ± 0.16. In the case of GETKIIYHLDTQETPYLVKLPLPAERVTLADFKGVLQRPSYKFFFKSMDDDFGVVKEEISDDNAKLPCFNGRVVSWLVSA [G11T], the abundance fitness is reported as -0.418 ± 0.091. In the case of GETKIIYHLDGQETPFLVKLPLPAERVTLADFKGVLQRPSYKFFFKSMDDDFGVVKEEISDDNAKLPCFNGRVVSWLVSA [Y16F], the abundance fitness is reported as -0.082 ± 0.097. For GETKIIYHLDGQETPYLVKLPLPAERVTLADFKGVLQRPSYKFFFKSMDDDFGVVKEEISDDNAKLPCFNGTVVSWLVSA [R72T], the abundance fitness was 0.318 ± 0.06. With GETKIIYHLDGQETPYLVKLPLPAERVTLADFKGVLQRPSYKFFFISMDDDFGVVKEEISDDNAKLPCFNGRVVSWLVSA [K46I] the abundance fitness was -0.189 ± 0.11. Variant GETKIIYHLDGQETPYLMKLPLPAERVTLADFKGVLQRPSYKFFFKSMDDDFGVVKEEISDDNAKLPCFNGRVVSWLVSA [V18M] has an abundance fitness of -0.247 ± 0.083. In the case of GETKIIYHLDGQETPYLVKLPLPAERVTLADFKGVLQRPSYKFFFKSMNDDFGVVKEEISDDNAKLPCFNGRVVSWLVSA [D49N], the abundance fitness is reported as 0.296 ± 0.089. In the case of GETKIIYHLDGQETPYLVKLPLPAERVTLADFKGVLQRPSYKFFFKSMDDDFGVVKEEISDCNAKLPCFNGRVVSWLVSA [D62C], the abundance fitness is reported as -1.05 ± 0.28. For GETKIIYHLDGQETPYLVKLPLPDERVTLADFKGVLQRPSYKFFFKSMDDDFGVVKEEISDDNAKLPCFNGRVVSWLVSA [A24D], the abundance fitness was -0.54 ± 0.15. In the case of GETKIIYHLDGQETPYLVKLPLPAERVTLADFKGVLQRPSYKFFFKSMDDDFGVVQEEISDDNAKLPCFNGRVVSWLVSA [K56Q], the abundance fitness is reported as -0.285 ± 0.072. Variant GETKIIYHLDGQEIPYLVKLPLPAERVTLADFKGVLQRPSYKFFFKSMDDDFGVVKEEISDDNAKLPCFNGRVVSWLVSA [T14I] has an abundance fitness of 0.024 ± 0.073. Work on GETKIIYHLDGQETPYWVKLPLPAERVTLADFKGVLQRPSYKFFFKSMDDDFGVVKEEISDDNAKLPCFNGRVVSWLVSA [L17W] yielded an abundance fitness of 0.022 ± 0.055. Variant GETKIIYHLDGQETPYLVKLPLPAERVTLADFKGVLQRPSYKFFFKSMDDDFGVVKENISDDNAKLPCFNGRVVSWLVSA [E58N] has an abundance fitness of -0.536 ± 0.17. In the case of GETKIIYHLDGQETPYLVKLPLPAERVTLADFKGVLQRPSYKFFFKSMDDDFGVVKEEISDDNAKLPCFNGRVVSWLVSK [A80K], the abundance fitness is reported as 0.212 ± 0.21. GETKIIYHLDGQETPYLVKLPLPAERVTLADFKGVLQRPSYKFFFKSMDDDFGVVKEEISDDNVKLPCFNGRVVSWLVSA [A64V] showed an abundance fitness of -0.506 ± 0.068. GETKIIYHLDGQETPYLVKLPLPAERVTLADFKGVLQRPSYKFFFKSMDDDHGVVKEEISDDNAKLPCFNGRVVSWLVSA [F52H] gave an abundance fitness of 0.32 ± 0.065. KETKIIYHLDGQETPYLVKLPLPAERVTLADFKGVLQRPSYKFFFKSMDDDFGVVKEEISDDNAKLPCFNGRVVSWLVSA [G1K] gave an abundance fitness of 0.191 ± 0.11. GETKIIYHLDGQETPYLVKLPLPAERVTLADFKGVLQRPSYKFFFKSMDDDFGVVKEEISDDNAKLPCFNGRVVSWLVSG [A80G] gave an abundance fitness of 0.014 ± 0.091. GETKIIYHLDGQETPYCVKLPLPAERVTLADFKGVLQRPSYKFFFKSMDDDFGVVKEEISDDNAKLPCFNGRVVSWLVSA [L17C] gave an abundance fitness of 0.347 ± 0.068. GETKIIYHLDGQETPYLVKLPLPAERVTLADFKGVLQRPSYKFFFKSMDDDFGVVVEEISDDNAKLPCFNGRVVSWLVSA [K56V] showed an abundance fitness of 0.102 ± 0.042. GETKIIYHLDGQETPYLVKLPLPAERVTLADFKGVLQRPSYKFFFKSMDDDFGVVKEEISDDNAKLMCFNGRVVSWLVSA [P67M] gave an abundance fitness of -0.603 ± 0.13. GETKIIYHLDGQETPYLVKLPLPAERVTLADFKGVLQRPSYKFFFKSADDDFGVVKEEISDDNAKLPCFNGRVVSWLVSA [M48A] gave an abundance fitness of 0.287 ± 0.07. Work on GETKIIYHLDGQETPYLVKLPLPAERVTLADFKGVLQRPSYKFFFKSMDDDGGVVKEEISDDNAKLPCFNGRVVSWLVSA [F52G] yielded an abundance fitness of 0.781 ± 0.057. In the case of GETKIIYHLDGQETPYLVKLPLPAERVTLADFKGVLQRPSYKFFFKSMDDDFGVVKEEISDDYAKLPCFNGRVVSWLVSA [N63Y], the abundance fitness is reported as -0.33 ± 0.12. In the case of GETKIIYHLDGQETPYLVKLPLPAERVTLADFKGVLQRPSYKFFFVSMDDDFGVVKEEISDDNAKLPCFNGRVVSWLVSA [K46V], the abundance fitness is reported as -0.407 ± 0.062. GETKIIYHLDGQETPYLVKLPLPAERVTLADFKGVLQVPSYKFFFKSMDDDFGVVKEEISDDNAKLPCFNGRVVSWLVSA [R38V] showed an abundance fitness of -0.024 ± 0.057. In the case of GETKIIYHLDGQETPYLVKLPLPAERVPLADFKGVLQRPSYKFFFKSMDDDFGVVKEEISDDNAKLPCFNGRVVSWLVSA [T28P], the abundance fitness is reported as -0.555 ± 0.1. For GETKIIYHLDGQETPYLVKLPLPAERVTLADFCGVLQRPSYKFFFKSMDDDFGVVKEEISDDNAKLPCFNGRVVSWLVSA [K33C], the abundance fitness was -0.589 ± 0.16. In the case of GETKIIYHLDGQETPYLVKLPDPAERVTLADFKGVLQRPSYKFFFKSMDDDFGVVKEEISDDNAKLPCFNGRVVSWLVSA [L22D], the abundance fitness is reported as -0.574 ± 0.12. GETKIIYHLDGQETPYLVKLPLPAERVTLADFKGVLQRPSYSFFFKSMDDDFGVVKEEISDDNAKLPCFNGRVVSWLVSA [K42S] showed an abundance fitness of -0.716 ± 0.12.
